Data reported in IntAct's records for PubMed 19366670.

Target: T1, asia_bpt4 asiA (UniProt P32267)
T1 sequence: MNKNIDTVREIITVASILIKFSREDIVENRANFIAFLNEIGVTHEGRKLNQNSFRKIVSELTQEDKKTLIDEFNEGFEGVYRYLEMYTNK

Substance	effect of a mutation on the interaction
DNA-directed RNA polymerase subunit beta (Escherichia coli (strain K12)) (from UniProt P0A8V2) G907K	decreasing interaction strength
DNA-directed RNA polymerase subunit beta (Escherichia coli (strain K12)) (from UniProt P0A8V2) I905A;F906A	decreasing interaction strength
